{"source": "the nanobody polyreactivity screen of Harvey et al. (2022)"}
{"experiment": "yeast display, Sf9 membrane polyspecificity reagent, FACS + sequencing; frameworks hold sequencing errors", "how_it_was_run": "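After 36–48 hours of galactose induction, yeast (Saccharomyces cerevisiae BJ5465) displaying a synthetic nanobody library were stained at 4 °C for 1 hour with 10% biotinylated, detergent-solubilized Sf9 membrane reagent. Streptavidin microbeads enriched the stained cells before FACS sorting into low and high (top ~1%) gates on anti-HA and streptavidin fluorescence. Each clone's polyreactivity label reflects its gate of origin.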"}
{"sequence": "QVQLVESGGGLVQAGGSLRLSCAASGFTFKAYAMGWYRQAPGKERELVAAISNSGGTTYYADSVKGRFTISRDNAKNTVYLQMNSLKPEDTAVYYCAAYQYYIPKMYYWGQGTQVTVSS", "polyreactivity (PSR sort gate)": "high polyreactivity"}
{"sequence": "QVQRVESGGGLVQAGGSLRLSCAASGITFKSYTMGWYRPAPGKERELVAANTASGGTTRYADSVKGRFTISRDNAKKTVYLQMNSLKPEDTAVYYCNALPFRYGKRRGYWGQGTQVTVSS", "polyreactivity (PSR sort gate)": "low polyreactivity"}
{"sequence": "QVQLEESGGGLVQAGGSLRLSCAASGSIIGPNAMGWYRQAPGKDRELVAAITSGSSTKYADSVKGRFTISRDNAMNTVYLQMNSLKPEDTAVDYCAASGTTTWKYGFWGQGTQVTVSS", "polyreactivity (PSR sort gate)": "low polyreactivity"}
{"sequence": "QVQLVESGGGLVQAGGSLRLSCAASGIFAYYVMGWYRQAPGKERELVADISRGGSTNYADSVKGRFTISRDNAKNTVYLQMISLKPEDSAVYYCNARSYYPWEGYDYWGQGTQVTVSS", "polyreactivity (PSR sort gate)": "low polyreactivity"}
{"sequence": "QVQLVESGGGLVQAVGSLSLICAASGSTFLKYTMGWYRQAPWKERELVAAISKSGGSTYYADSVKGRFTISRDNAKNTVYLQMNSLKPEDTAVYYCAKGRYWVSSYGYGYWVQGTQVTVSS", "polyreactivity (PSR sort gate)": "high polyreactivity"}
{"sequence": "QVQLVESGGGLVQAGGSLRLSCAASGRTFRYYDMGWYRQAPGKEREFVAAITWRGGSTYYADSVKGRFTISRDYAKNTVYLQMNSLTPEDTAVYYCATDSLRLYGGKRDLYYWGQGTQVTVSS", "polyreactivity (PSR sort gate)": "low polyreactivity"}
{"sequence": "QVQLVESGGGLVQAGGSLRLSCAASGRIFGVYAMGWYRQAPGKERELVAAIYSGSTTYYADSVKGRFTISRDNAKNTVYVQMNSLKPEDTAVYYCAAVSRDDNYQDYYSWGQGTQVTGSS", "polyreactivity (PSR sort gate)": "low polyreactivity"}
{"sequence": "QVQLVESGGVLVQAGGSLRLSCAASGITFPGYAMGWYRKAPGKERELVAAISAIGGRTYYADSVKGRFTISRYNAKNTVYLQMNSLKPEDTAVYYCNVLPYGGKKPTLFDYWGQGTQVTVSS", "polyreactivity (PSR sort gate)": "high polyreactivity"}
{"sequence": "QVQLVESGGGLVQAGGSLRLSCAASGFTFRRNAMGWYRQAPGKEWEFVAAITGRGTGTYYADSVKGRFTISRDNAKNTVYLQMYILKPEDTAGYYCNDDPVRYLFNRYDYWGQGTQVTVSS", "polyreactivity (PSR sort gate)": "high polyreactivity"}
{"sequence": "QVQLVESGGGLVQAGGSLRLSCAASGRTFVFNDMGWYRQAPGKERELVAAITKNGGSTYYADSVKGRFTISRDTAKNTVYLHMNSLKPEDTAVYYSNASFQYYDYWGQGTQVTVSS", "polyreactivity (PSR sort gate)": "low polyreactivity"}
{"sequence": "QVQLVESGGGLVQAGGSLRLICAASGGIFTRNDMGWYRQAPGKERELVAGISWRGGSTYYADSVKGRFTISRDNAKNTVYLQMNSLKPEDTAVYYCAALDTGGERDYWGQGTQVNVSS", "polyreactivity (PSR sort gate)": "low polyreactivity"}
{"sequence": "QVQLVESGGGLVQAGGSLRLSCAASGSIFDYNAMGWYRTAPGKERELVAAITGSGGSTYYADSVKGRFTISRDNAKNTVYLQMNSLTQEDTAVYYCAAPVDYRRYEYEYWGQGTQVTLSS", "polyreactivity (PSR sort gate)": "low polyreactivity"}
{"sequence": "QVQLVESGGGLVQAGGSLRLSSAASGSIFPKNTMGWYRQAPGKERELVAAISKSGGSTYYADSVKGRFTISRDNAKNTVYLQMNSLKPEDTAVYYCAAALGLRSTSWGRRGGGGDYWGQGTQVTVSS", "polyreactivity (PSR sort gate)": "high polyreactivity"}
{"sequence": "QVQLVESGGGLVQAGGSLRLSCAASGNIFSDYAMGWYRPAPGKERELVAAISSGGNTNYADSVKGRFTISRDNAKNTVYLQMNSLKPEDTAVYYCAADPGYYVSAYDYWGQGTQVTVSS", "polyreactivity (PSR sort gate)": "low polyreactivity"}
{"sequence": "QVQLVESGGGLVQAGGSLRLSCAASGSTLGGYAMGWYRQAPGKERELVASISWDDVRTYYADSVKGRFTISRDNAKNTVYLQMNSLKPEDTAVYYCAKGDIEYFWSRIYGYWGQGTQVTVSS", "polyreactivity (PSR sort gate)": "low polyreactivity"}
{"sequence": "QVQLVESVGGLVQAGGSLRLSCAAYGRIFAWYAMGWYIQAPGKERELVAVITSSDGSTHYADSVKGRFTISRDNAKNTVYLQMNSLKPEDTAVYYCNADSQRPRRSSTYWGQGTQVTVSS", "polyreactivity (PSR sort gate)": "low polyreactivity"}
{"sequence": "QVQLVESGGGLVQAGGSLRLSCAASGINFRYYAMGWYRQATGKERELVADISSDGGTYYADSVKGRFKISRDNAQNTVYLQMNSLKPEDTAVYYCAADYQFYWHYYYWGQGTQVTVSS", "polyreactivity (PSR sort gate)": "high polyreactivity"}
{"sequence": "QVQLVESGGGLVQAGGSLRLSCAASGSIFAQYTMGWYRQAPGKERELVAVISINGVSTYYADSVKGRFTISRDNAKNTVYLQMNSLKPEDTAVYYCNAGISPYEALGYWGQGTQVTVSS", "polyreactivity (PSR sort gate)": "low polyreactivity"}
{"sequence": "QVQLVESGGGLVQAGGSLRLSCAASGTIFTTYAIGWYRQEPGKERELVSAISGRGSDTYYADSVKGRFTISRDNAMNTVYLQMNSLKPEDTAVYYCNARRSRAYHGRSFEYWGQGTQVTLSS", "polyreactivity (PSR sort gate)": "low polyreactivity"}
{"sequence": "QVQLVESGGGLVQAGGSLRLSCAPSGSIFGVYAMGWYRQAPGKERELVDTISWSAGSTYYADSVKGRFTISRDNAKNTVYLQMNSLKPVDTAVYYCGAGVRWLGLYDLFTFDYWGQGTQVTVSS", "polyreactivity (PSR sort gate)": "low polyreactivity"}
{"sequence": "QVQLVESGGGLVQAGGSLRLSCAASGRISYLYTMGWYRQAPGKERELVAAIRWRDGSTYYADSVKGRFTISRDNAKNTVYLQMNSLTPEDTAVYYCAATPVGFYWYDYWGQGTQVTVSS", "polyreactivity (PSR sort gate)": "low polyreactivity"}
{"sequence": "QVQLVESGGGLVQAGGSLRLSWAASGNTFNNNPMGWYRQAPGKERELVAAISGSGGSTYYADSVKGRFTISRDNAKNTVYLQLNSLKPEDTAGYYCAVRLVHGGKRYVYWGQGTQVTVSS", "polyreactivity (PSR sort gate)": "high polyreactivity"}
{"sequence": "QVQLVESGGGLVQAGGSLRLSCAASGSTFGDYAMGWFRQAPGKERELVAAMNSGDSRNYADSVKGRFTISRDNAKNTVYLQMNSLKPEDTAVYYCAAEPWSISYVYYKYKYESWGQGTQVTVSS", "polyreactivity (PSR sort gate)": "low polyreactivity"}
{"sequence": "QVQLVESGGGLVQAGCSLRLSCAASGFIFIRYAKGWYRQAPGQESELVASISSGGSTYYADSVKGRFTISRDNAKNTVYLQMNSLKPEDTAVYYCAAVFSKGLEGDYWGQGTQVTVSS", "polyreactivity (PSR sort gate)": "high polyreactivity"}
{"sequence": "QVQLVESGGGLVHAGGSIRLSCSASRRIFGYNVMGWYRQAPGKERELVAAITSGDRTYYADSVKGRFTISRDNAKHTVYLQMNSLKPEDTAVYYCAARGDRRRYGSLMDSWGQGTQVTVSS", "polyreactivity (PSR sort gate)": "high polyreactivity"}
{"sequence": "QVQLVESGGGLVQAGGSLRLSCAASGRTFPYNAMGWYRTAPGKERELVAAISSGGSTNYADSVKGRFTISRDNAKNTVYLQMNSLKPEDTAVYYCAVTGWPRYTWYSYGYWGQGTQVTVSS", "polyreactivity (PSR sort gate)": "low polyreactivity"}
{"sequence": "QVQLVESGGGLVQAGGSLRLSCAASGRTFYPYAMGWYRQAPGKERELVAAITISVGSTYYADSVKGRFTISRDNAKNTVYLQMNSLNPEDTAVYYCAAANTPEYDYWGQGTQVTVSS", "polyreactivity (PSR sort gate)": "low polyreactivity"}
{"sequence": "QVQLVESGGGLVQAGGSLRLSCAASGSFFHDYSMGWYRQAPGKERELVAAIRWSGGSTYYADSVKGRFTISRDNAKNTVYVQMNSLKPEDTAVYYCNAVTFGRDNVQLVKFGYWGQGTQVTVSS", "polyreactivity (PSR sort gate)": "low polyreactivity"}
{"sequence": "QVQLVESGGGLVQEGGSLRLSCAASGIIFRWYAMGWYRQAPGKERELVAAITSDGNTYYADSVKGRFTISRDNAKNTVYLQMNSLKPVDTAVYYCAARLSYYSRMNYWGQGTQVTVSS", "polyreactivity (PSR sort gate)": "high polyreactivity"}
{"sequence": "QVQLVESGGGLVQEGGSLRLSCAASGRTFGYYVMGWYRQAPGKERELVAAISNTDSTYYADSVKGRFTISRDNAKNSVYLQMNSLKPEDTAVYYCDKDGRTVAYTWTRTHYYWGQGTQVTVSS", "polyreactivity (PSR sort gate)": "low polyreactivity"}
{"sequence": "QVQLVESGGGLVQAGGSLRLSCAASGSTFRSYAMGWYRQAPGKEWELVAAISGDGSTNYADSVKGRFTISRDNAKNTVYLQMNSLKPEDTAVSYCAKDPGYPAPYYDYYYWGQGTQVTVSS", "polyreactivity (PSR sort gate)": "low polyreactivity"}
{"sequence": "QVQLVESGGGLVQAGGSLRLSCAASGFTFYWYAMGWYRQAPGKERELVAAITSGGGTTYYADSVKGRFTISRDNAKNTVYLQMNSLKPEDTAVYYCAADSYTYPWIERDYWGQGTQVTVSS", "polyreactivity (PSR sort gate)": "high polyreactivity"}
{"sequence": "QVQLVESWGGLVQAGGSLRLSCAASGSIFFPNAMGWYRQAPWKERELVAAIRGGTNTYYADSVKGRFTISRDNAKNTVYLQMNSLKPEDTAVYYCAARRSSHWFTYDYWGQGTQVTVSS", "polyreactivity (PSR sort gate)": "high polyreactivity"}
{"sequence": "QVQLVESGGGLVQAGGSLRLSCAASGNIFTYYVMGWYRQAPGKESELVAAISRRGGSTYYADSVKGRFTISRDNAKNTVYLQMNSLNPEDTAVYYCADRWYKWSTFSGWSRYDYWGQGTQVTVSS", "polyreactivity (PSR sort gate)": "high polyreactivity"}
{"sequence": "QVQLVDSGVGLVQAGGSHRLSCAASAFTIDGYDMGWYRQAPGKERELVAAISWDGGSTYYADSVKGRFTISRDNAKNTVYLQMNSLKPEDTAVYYCAAPFPFVSEFYRYDYWGQGTQVTVST", "polyreactivity (PSR sort gate)": "low polyreactivity"}
{"sequence": "QVQLVESGGGLVQAGGSLPLSCAASGFTFYRYTMVWYRQAPGKERELVAAISRGGRTYYADSVKGRFTISRDNAKNTDYLQMNSLKPEDTAVYYCNARYPSADDWGQGTQVTVSS", "polyreactivity (PSR sort gate)": "high polyreactivity"}
{"sequence": "QVQLVESGGGLVQAGGSLRLSCAASGFTFQRYTMGWYRQAPGKERELVAAISWSGGSTYYADSVKGRFTISRDNAKNSVYLQMNSLKPEDTAVYYCAAYRVIPYLSDYWGEGTQVTVSS", "polyreactivity (PSR sort gate)": "high polyreactivity"}
{"sequence": "QVQLVESGGGLVQAGGSLRLSCAASGRTFSTYAMGWYRQAPGKERELVAAIDSGGGSTYYADSVKGRFTISRDNAKNTVYLQMNSLKPEDTAVYYCARDHYAPLARLRYDYWGQGTQVTVSS", "polyreactivity (PSR sort gate)": "low polyreactivity"}
{"sequence": "QVQLVESGGGLVQAGGSLRLSCAASGRIFTSYTMGWYRQAPGKERELVAAISASGASTYYADSVKGRFTISRDNAKNTVYLQMNSLKPEDSAVYYCATVRPRERRGYWGQGTQVTVSS", "polyreactivity (PSR sort gate)": "high polyreactivity"}
{"sequence": "QVQLVESGGGLVQAGGSLRLSCAASGRIFRYNAMGWYRQAPGKERELVATISRGGGSTYYADSVKGRFTISRDNAKNTVYLQMNSLKPEDTAVYYCAAVGYYLVKFDYWGQGTQVTVSS", "polyreactivity (PSR sort gate)": "high polyreactivity"}
{"sequence": "QVQLVESGGGLVQAGGSLRLSCAASGITFYLNAMVWYRQAPGKERELVADITVSGGSTYYADSVKGRFTISRDYAKNTVYLQMNRLKPEDTAVYYCAADLTISYSQEYYYWGQGTQVTVSS", "polyreactivity (PSR sort gate)": "low polyreactivity"}
{"sequence": "QVQLVESGGGLVQAGGSLRLSCAASGIIFLNYDIGWYRPAPGKERELVAAITTSGASTYYADSVKGRFTISRDNAKNTVYLQMNSLKREDTAVYYCAAVFRHARYRYDYWGQGTQVTVSS", "polyreactivity (PSR sort gate)": "high polyreactivity"}
{"sequence": "QVQLVESGGGLVQAGGSLRLSCAASGSIFEPYAMGWYRQAPGKERELVAAISWDVGRTYYADSVKGRFTISRDNAKNTVYLQMNSLKPEDTAVYYCAAEIAIDGYYKSWYDYWGQGTQVTVSS", "polyreactivity (PSR sort gate)": "high polyreactivity"}
